Data on 1 molecule can be found in US6096512A, “Cloned DNA encoding a UDP-GalNAc: Polypeptide, N-acetylgalactosaminyltransferase” (Pharmacia & Upjohn Company, priority 1997, dated 2000).

The target in test [1] is T1, bovine colostrum GalNAc-transferase (Bos taurus, UniProt Q07537).
T1 sequence (Q07537 41-559): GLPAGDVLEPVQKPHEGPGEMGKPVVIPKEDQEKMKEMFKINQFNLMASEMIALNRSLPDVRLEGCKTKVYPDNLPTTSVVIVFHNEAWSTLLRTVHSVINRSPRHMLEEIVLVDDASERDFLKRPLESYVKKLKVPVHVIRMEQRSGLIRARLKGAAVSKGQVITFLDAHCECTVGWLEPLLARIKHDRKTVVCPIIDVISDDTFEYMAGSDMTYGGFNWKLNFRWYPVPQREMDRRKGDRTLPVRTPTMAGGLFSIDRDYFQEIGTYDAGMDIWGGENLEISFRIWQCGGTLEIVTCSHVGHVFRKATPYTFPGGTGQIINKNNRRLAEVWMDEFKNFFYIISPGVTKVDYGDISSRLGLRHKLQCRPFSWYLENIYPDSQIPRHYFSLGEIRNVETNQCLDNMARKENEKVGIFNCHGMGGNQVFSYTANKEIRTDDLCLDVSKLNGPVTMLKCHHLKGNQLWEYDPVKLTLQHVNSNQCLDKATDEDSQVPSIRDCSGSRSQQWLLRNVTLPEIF
As to the kind of experiment: Transfer of N-acetylgalactosamine to protein acceptors by bovine colostrum GalNAc-transferase. The format is biochemical. The conditions noted are these: acceptor 65 μM, enzyme approximately 65 mU/ml, 60 minutes. As for the experimental part:
The standard assay for UDP-GalNAc:polypeptide, N-acetylgalactosaminyltransferase activity during purification contained the following components in a final volume of 80 μl: 50 mM Imidazole pH 7.2, 10 mM MnCl2, 0.5% Triton X-100, 15 μM UDP-GalNAc, UDP[1-^3 H-] GalNAc (27,000 cpm/assay), 0.15 mg/ml apomucin and varying amounts of enzyme (see individual experiments). The reaction mixture is incubated at 37° C. for 5-10 minutes (see individual experiments) and the reaction product is TCA precipitated and radioactivity measured as described. Assays for activity in lysates from Spodoptera frugiperda cell line 9 (hereinafter referred to as Sf9 cells) are carried out as described by Thomsen et al., (1990).
The above conclusions and the predictions of the specificity algorithm are validated experimentally by studying the ability of bovine colostrum GalNAc-transferase to transfer N-acetylgalactosamine to a variety of acceptors, both native proteins and synthetic acceptor peptides. The transfer of N-acetylgalactosamine to protein acceptors is assayed as described by Elhammer and Kornfeld, 1986, with minor modifications. The concentration of UDP-GalNAc is saturating in all assays; a Km of 8 μM is reported for bovine colostrum GalNAc-transferase (Elhammer and Kornfeld, 1986).
The transfer of N-acetylgalactosamine to protein acceptors was assayed
under standard conditions (see Material and Methods). The acceptor
concentration was 65 μM, the enzyme concentration approximately
65 mU/ml and assay time was 60 minutes. The transfer to both native and
reduced-carboxymethylated acceptors was assayed.

Test [2] addresses T1, bovine colostrum GalNAc-transferase. The conditions noted are these: Cruz and Moscarello, 1983; cited from earlier work.

B1: Myelin basic protein: efficient acceptor for GalNAc-transferase, included as a positive control (protein, UniProt P02686 1-304, looked up)
Myelin basic protein: MGNHAGKRELNAEKASTNSETNRGESEKKRNLGELSRTTSEDNEVFGEADANQNNGTSSQDTAVTDSKRTADPKNAWQDAHPADPGSRPHLIRLFSRDAPGREDNTFKDRPSESDELQTIQEDSAATSESLDVMASQKRPSQRHGSKYLATASTMDHARHGFLPRHRDTGILDSIGRFFGGDRGAPKRGSGKDSHHPARTAHYGSLPQKSHGRTQDENPVVHFFKNIVTPRTPPPSQGKGRGLSLSRFSWGAEGQRPGFGYGGRASDYKSAHKGFKGVDAQGTLSKIFKLGGRDSRSGSPMARR
As to B1, in test [1] (native), the “Product formed, native acceptor” value was 22.2 nmol/min/mg. Also, the “Product formed, reduced and carboxymethylated acceptor” value in test [1] (myelin basic protein was not reduced and carboxymethylated) was 21.3 nmol/min/mg. Also, the N-acetylgalactosamines per molecule in test [2] is listed as 1.2 to 1.5 N-acetylgalactosamines per molecule.
